Article PMC12126490 (2025)

Target: chromoshadow domain of HP1α (HP1αCSD, aa 109–185 of HP1α) (human, UniProt P45973 109-185)
Sequence (P45973 109-185): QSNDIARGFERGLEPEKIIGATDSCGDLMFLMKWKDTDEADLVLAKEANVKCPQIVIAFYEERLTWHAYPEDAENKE

RKVPRVSLERL [HP1 box-containing KAP1 peptide (KAP1_(Hbox), aa 483–493 of KAP1)]
Kd: 1600 nM
